The record followed here is article PMC8767186.

The experiment has as its target Spc105-mCherry (S. cerevisiae) (UniProt P53148). Description: co-IP; RFP-Trap beads (Chromotek) on cleared yeast lysates in buffer H 0.15 (25 mM HEPES pH 8.0, 150 mM KCl, 0.1% IGEPAL), overnight; blots with anti-GFP and anti-DsRed; band intensities by ImageJ, normalised to full length, input and Spc105 IP.
Sequence of UniProt P53148 (P53148 whole entry): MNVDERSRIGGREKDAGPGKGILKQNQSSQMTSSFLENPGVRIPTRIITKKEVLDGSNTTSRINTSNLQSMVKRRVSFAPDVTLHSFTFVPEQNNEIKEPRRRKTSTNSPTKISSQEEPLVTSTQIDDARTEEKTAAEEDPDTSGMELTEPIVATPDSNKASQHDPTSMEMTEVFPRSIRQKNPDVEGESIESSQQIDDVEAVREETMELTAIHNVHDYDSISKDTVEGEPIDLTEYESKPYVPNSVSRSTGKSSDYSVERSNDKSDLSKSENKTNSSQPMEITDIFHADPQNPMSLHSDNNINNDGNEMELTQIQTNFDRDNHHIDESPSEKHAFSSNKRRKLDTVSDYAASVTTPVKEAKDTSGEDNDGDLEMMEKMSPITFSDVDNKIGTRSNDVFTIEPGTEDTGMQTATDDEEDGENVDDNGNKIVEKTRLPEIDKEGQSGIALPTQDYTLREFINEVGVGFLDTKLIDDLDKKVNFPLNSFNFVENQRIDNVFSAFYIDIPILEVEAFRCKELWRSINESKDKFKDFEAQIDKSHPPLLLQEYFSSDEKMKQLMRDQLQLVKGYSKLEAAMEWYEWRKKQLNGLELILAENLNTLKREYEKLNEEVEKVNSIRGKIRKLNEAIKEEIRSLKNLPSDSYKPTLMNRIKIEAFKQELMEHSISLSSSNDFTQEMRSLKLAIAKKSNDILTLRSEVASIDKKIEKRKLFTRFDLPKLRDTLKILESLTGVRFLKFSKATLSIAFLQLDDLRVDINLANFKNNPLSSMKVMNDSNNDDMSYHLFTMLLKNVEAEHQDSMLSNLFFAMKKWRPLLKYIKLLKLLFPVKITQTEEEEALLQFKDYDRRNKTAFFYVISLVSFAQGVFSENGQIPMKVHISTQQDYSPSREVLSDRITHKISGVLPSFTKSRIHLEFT

Substance “GFP-kre28^Δ127–182 (from UniProt Q04431 1-385) (natural protein)” displayed a reduction of co-precipitation against full-length Kre28 of 40%.
